Experimental data from PMC11853559, “α-Synuclein Iron-Responsive-Element RNA and Iron Regulatory Protein Affinity Is Specifically Reduced by Iron in Parkinson’s Disease”.

Columns and labels:
Settings in all cases: protein: commercial; hairpin (stem-loop), melted and reannealed
[1] = target: T1, Iron regulatory protein 1 (IRP1) (UniProt P21399 1-889); experiment: fluorescence quenching (intrinsic); 30 °C, no Fe; 20 mM HEPES pH 7.4, 100 mM KCl, 1 mM MgCl2; 50 nM IRP1, 0-200 nM RNA; 15 min; 25 °C (5-30 °C series); Fe2+ 50 uM anaerobic where stated
T1 sequence: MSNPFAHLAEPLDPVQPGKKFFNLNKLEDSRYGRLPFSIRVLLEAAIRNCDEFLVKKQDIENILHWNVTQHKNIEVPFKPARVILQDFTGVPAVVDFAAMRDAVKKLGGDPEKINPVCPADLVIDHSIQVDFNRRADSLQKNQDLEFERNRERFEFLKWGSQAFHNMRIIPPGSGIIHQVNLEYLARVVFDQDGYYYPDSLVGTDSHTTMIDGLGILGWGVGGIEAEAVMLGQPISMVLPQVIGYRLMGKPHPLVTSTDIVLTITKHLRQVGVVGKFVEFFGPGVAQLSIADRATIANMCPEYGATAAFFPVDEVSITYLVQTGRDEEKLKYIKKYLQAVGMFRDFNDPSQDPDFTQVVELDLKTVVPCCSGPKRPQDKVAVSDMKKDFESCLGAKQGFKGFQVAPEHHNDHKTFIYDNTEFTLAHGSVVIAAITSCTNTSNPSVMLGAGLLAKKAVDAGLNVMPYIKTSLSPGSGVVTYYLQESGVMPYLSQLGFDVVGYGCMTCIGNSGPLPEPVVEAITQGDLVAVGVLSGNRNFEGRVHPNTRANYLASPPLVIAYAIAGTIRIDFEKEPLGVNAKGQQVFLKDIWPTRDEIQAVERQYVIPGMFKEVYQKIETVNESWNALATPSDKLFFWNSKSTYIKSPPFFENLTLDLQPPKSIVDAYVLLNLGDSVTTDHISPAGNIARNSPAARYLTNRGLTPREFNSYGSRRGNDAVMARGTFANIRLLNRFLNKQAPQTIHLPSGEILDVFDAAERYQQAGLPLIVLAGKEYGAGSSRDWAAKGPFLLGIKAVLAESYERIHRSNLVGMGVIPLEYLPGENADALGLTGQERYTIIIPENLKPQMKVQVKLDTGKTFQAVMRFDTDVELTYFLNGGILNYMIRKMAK

[2] = target: T1, Iron regulatory protein 1 (IRP1); experiment: fluorescence quenching, Scatchard; 25 °C, no Fe (abstract gives 21.0); 20 mM HEPES pH 7.4, 100 mM KCl, 1 mM MgCl2; 50 nM IRP1, 0-200 nM RNA; 15 min; 25 °C (5-30 °C series); Fe2+ 50 uM anaerobic where stated
[3] = target: T1, Iron regulatory protein 1 (IRP1); experiment: fluorescence quenching (intrinsic); 15 °C, no Fe; 20 mM HEPES pH 7.4, 100 mM KCl, 1 mM MgCl2; 50 nM IRP1, 0-200 nM RNA; 15 min; 25 °C (5-30 °C series); Fe2+ 50 uM anaerobic where stated
[4] = target: T1, Iron regulatory protein 1 (IRP1); experiment: fluorescence quenching (intrinsic); 25 °C, no Fe; 20 mM HEPES pH 7.4, 100 mM KCl, 1 mM MgCl2; 50 nM IRP1, 0-200 nM RNA; 15 min; 25 °C (5-30 °C series); Fe2+ 50 uM anaerobic where stated
[5] = target: T1, Iron regulatory protein 1 (IRP1); experiment: fluorescence quenching (intrinsic); 10 °C, no Fe; 20 mM HEPES pH 7.4, 100 mM KCl, 1 mM MgCl2; 50 nM IRP1, 0-200 nM RNA; 15 min; 25 °C (5-30 °C series); Fe2+ 50 uM anaerobic where stated
[6] = target: T1, Iron regulatory protein 1 (IRP1); experiment: fluorescence quenching (intrinsic); 5 °C, no Fe; 20 mM HEPES pH 7.4, 100 mM KCl, 1 mM MgCl2; 50 nM IRP1, 0-200 nM RNA; 15 min; 25 °C (5-30 °C series); Fe2+ 50 uM anaerobic where stated
[7] = target: T1, Iron regulatory protein 1 (IRP1); experiment: fluorescence quenching (intrinsic); 20 °C, no Fe; 20 mM HEPES pH 7.4, 100 mM KCl, 1 mM MgCl2; 50 nM IRP1, 0-200 nM RNA; 15 min; 25 °C (5-30 °C series); Fe2+ 50 uM anaerobic where stated

B1: alpha-Syn IRE RNA (SNCA 5'-UTR) (structured_RNA)
RNA: ACUGGGAGUGGCCAUUCGACGACAGUGUGGUGUAAAGGAAUUCAUUAGCC
Question: Which Kd [1] does the source give for B1 here?
Answer: 63.8 ± 3.2 nM

Question: What about the Ka [2] of the same binder?
Answer: 20.8 10^6 M-1

Question: What about the Kd [3] of the same binder?
Answer: 27.8 ± 1.2 nM

Question: And the Kd [4]?
Answer: 47.6 ± 1.7 nM

Question: And the Kd [5]?
Answer: 21.9 ± 0.8 nM

Question: What about the Kd [6] of the same binder?
Answer: 13.5 ± 0.6 nM

Question: And the Kd [7]?
Answer: 38.9 ± 1.5 nM
